Measured values as given in publication PMC5774825.

Assays:
[1] = target: Ab-WbjB (UDP-N-acetylglucosamine 4,6-dehydratase, WbjB) of Acinetobacter baumannii D1279779 (Acinetobacter baumannii strain D1279779); assay: crystal structure; Se-Met Ab-WbjB, space group P212121, six chains in the asymmetric unit, NADP+ bound to each chain, 2.65 Å
[2] = target: Ab-WbjB (UDP-N-acetylglucosamine 4,6-dehydratase, WbjB) of Acinetobacter baumannii D1279779 (Acinetobacter baumannii strain D1279779); assay: SEC; some laboratory samples of Ab-WbjB, presumed by the authors to hold less NADP+; dimer form in solution (example in S1 Fig)
[3] = target: Ab-WbjB (UDP-N-acetylglucosamine 4,6-dehydratase, WbjB) of Acinetobacter baumannii D1279779 (Acinetobacter baumannii strain D1279779); assay: SEC; Superdex 200 10/300 GL, Buffer A (50 mM HEPES pH 7.5, 200 mM NaCl, 5% v/v glycerol), 0.5 mL/min; hexamer

Ab-WbjB (UDP-N-acetylglucosamine 4,6-dehydratase, WbjB) of Acinetobacter baumannii D1279779 (enzyme)
stoichiometry N [1]: 6 | stoichiometry N [2]: 2 | stoichiometry N [3]: 6
